We go through one molecule from article PMC2685004, “Recruitment of a SAP18-HDAC1 Complex into HIV-1 Virions and Its Requirement for Viral Replication” (PLoS Pathogens, 2009).

For assay [1], the target named is T1, 6H(hexa-histidine)-INI1/hSNF5 (human, UniProt Q12824 1-385).
T1 construct: also called His-INI1; source: Ni-NTA and hydroxylapatite purified
As to the kind of experiment: pull-down; glutathione sepharose beads with GST-SAP18 incubated with purified IN and INI1 together; Western blot. The conditions noted are these: both partners purified. For orientation: Immunoblotting shows a protein as a band on a membrane.

In assay [2] the target is T1, 6H(hexa-histidine)-INI1/hSNF5. Description: pull-down; glutathione sepharose 4B beads with 5 µg GST or GST-SAP18, incubated with 2 µg His-IN or His-INI1, one at a time; 20 mM HEPES-KOH pH 6.8, 200 mM NaCl, 0.1 mM EDTA, 2-5 mM DTT, 0.1% IGEPAL, 100 µg/ml ethidium bromide, 10 U DNaseI; Western blot. The conditions noted are these: both partners purified.

T1 sequence (Q12824 whole entry): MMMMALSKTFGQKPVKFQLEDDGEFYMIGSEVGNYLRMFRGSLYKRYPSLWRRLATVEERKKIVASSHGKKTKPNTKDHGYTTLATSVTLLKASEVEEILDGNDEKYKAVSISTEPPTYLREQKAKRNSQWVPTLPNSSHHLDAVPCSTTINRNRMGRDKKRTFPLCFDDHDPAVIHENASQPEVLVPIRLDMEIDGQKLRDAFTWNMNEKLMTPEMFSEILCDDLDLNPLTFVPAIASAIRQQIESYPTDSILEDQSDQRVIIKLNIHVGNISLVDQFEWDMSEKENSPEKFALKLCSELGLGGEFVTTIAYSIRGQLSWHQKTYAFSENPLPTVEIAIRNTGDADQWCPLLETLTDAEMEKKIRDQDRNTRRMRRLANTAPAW

B1: GST-SAP18 (natural protein, UniProt O00422 1-153, looked up)
chain: MAVESRVTQEEIKKEPEKPIDREKTCPLLLRVFTTNNGRHHRMDEFSRGNVPSSELQIYTWMDATLKELTSLVKEVYPEARKKGTHFNFAIVFTDVKRPGYRVKEIGSTMSGRKGTDDSMTLQSQKFQIGDYLDIAITPPNRAPPPSGRMRPY
notes: also called GST (glutathione-S-transferase)-SAP18; pGEX-SAP18
As for B1, the binding result in assay [1] and in assay [2] was “binds” each time.
